Here are results for two molecules from PMC4847171, “Structural model of FeoB, the iron transporter from Pseudomonas aeruginosa, predicts a cysteine lined, GTP-gated pore” (Bioscience Reports, 2016).

As usually defined, the stoichiometry N is a count of units in the complex or per binding partner.

Data set [1] concerns the target FeoB from Pseudomonas aeruginosa, histidine-tagged (Pseudomonas aeruginosa). Put plainly: AFM; AFM imaging in air of isolated FeoB diluted 10000-20000 times in 10 mM K-HEPES pH 7.0, 200 mM NaCl, 10 mM MgSO4, 0.05% C12E8, adsorbed on mica and dried; oligomeric state from molecular volumes.
The target is the same in data set [2]. Nature of the data set: native gel or EMSA; blue-native PAGE (NativePAGE Novex Bis-Tris 4%-12% gel, Coomassie blue G-250, 140 V for 2 h); purified FeoB solubilised with the polymer NV10.
Data set [3] deals with the molecule itself. Put plainly: native gel or EMSA; blue-native PAGE, same gel as FeoB; comparison proteins MexB and BSA. A general note: Mobility shift assays separate free from complexed probe on a gel.

“And” between values parts separate entries of the source, which are not always exact repeats. Equal values may be shown once.

In the case of “FeoB from Pseudomonas aeruginosa, histidine-tagged (natural protein)”, the stoichiometry N in data set [1] is 3 and 6; in data set [2] it was 3 and 6.

B1: MexB, drug efflux transporter from Pseudomonas aeruginosa (natural protein)
chain: MSKFFIDRPIFAWVIALVIMLAGGLSILSLPVNQYPAIAPPAIAVQVSYPGASAETVQDTVVQVIEQQMNGIDNLRYISSESNSDGSMTITVTFEQGTDPDIAQVQVQNKLQLATPLLPQEVQRQGIRVTKAVKNFLMVVGVVSTDGSMTKEDLSNYIVSNIQDPLSRTKGVGDFQVFGSQYSMRIWLDPAKLNSYQLTPGDVSSAIQAQNVQISSGQLGGLPAVKGQQLNATIIGKTRLQTAEQFENILLKVNPDGSQVRLKDVADVGLGGQDYSINAQFNGSPASGIAIKLATGANALDTAKAIRQTIANLEPFMPQGMKVVYPYDTTPVVSASIHEVVKTLGEAILLVFLVMYLFLQNFRATLIPTIAVPVVLLGTFGVLAAFGFSINTLTMFGMVLAIGLLVDDAIVVVENVERVMAEEGLSPREAARKSMGQIQGALVGIAMVLSAVFLPMAFFGGSTGVIYRQFSITIVSAMALSVIVALILTPALCATMLKPIEKGDHGEHKGGFFGWFNRMFLSTTHGYERGVASILKHRAPYLLIYVVIVAGMIWMFTRIPTAFLPDEDQGVLFAQVQTPPGSSAERTQVVVDSMREYLLEKESSSVSSVFTVTGFNFAGRGQSSGMAFIMLKPWEERPGGENSVFELAKRAQMHFFSFKDAMVFAFAPPSVLELGNATGFDLFLQDQAGVGHEVLLQARNKFLMLAAQNPALQRVRPNGMSDEPQYKLEIDDEKASALGVSLADINSTVSIAWGSSYVNDFIDRGRVKRVYLQGRPDARMNPDDLSKWYVRNDKGEMVPFNAFATGKWEYGSPKLERYNGVPAMEILGEPAPGLSSGDAMAAVEEIVKQLPKGVGYSWTGLSYEERLSGSQAPALYALSLLVVFLCLAALYESWSIPFSVMLVVPLGVIGALLATSMRGLSNDVFFQVGLLTTIGLSAKNAILIVEFAKELHEQGKGIVEAAIEACRMRLRPIVMTSLAFILGVVPLAISTGAGSGSQHAIGTGVIGGMVTATVLAIFWVPLFYVAVSTLFKDEASKQQASVEKGQ
With B1, the “stoichiometry N” value in data set [3] was 2 and 3.
